Drawing on article PMC4498735, “Fibulin-1C, C1 Esterase Inhibitor and Glucose Regulated Protein 75 Interact with the CREC Proteins, Calumenin and Reticulocalbin” (PLoS ONE, 2015), this text covers Kd for three molecules.

Conditions in all cases: both partners purified
In experiment [1] the target is T1, GST-fibulin-1C (UniProt P23142-4 33-683).
T1 construct: fibulin-1C, amino acids 33-683, cloned into pGEX-4T3; the C variant has 683 amino acids; also called recombinant GST-fibulin-1C; source: E. coli, purified (glutathione-sepharose, Superdex 200)
T1 sequence (looked up): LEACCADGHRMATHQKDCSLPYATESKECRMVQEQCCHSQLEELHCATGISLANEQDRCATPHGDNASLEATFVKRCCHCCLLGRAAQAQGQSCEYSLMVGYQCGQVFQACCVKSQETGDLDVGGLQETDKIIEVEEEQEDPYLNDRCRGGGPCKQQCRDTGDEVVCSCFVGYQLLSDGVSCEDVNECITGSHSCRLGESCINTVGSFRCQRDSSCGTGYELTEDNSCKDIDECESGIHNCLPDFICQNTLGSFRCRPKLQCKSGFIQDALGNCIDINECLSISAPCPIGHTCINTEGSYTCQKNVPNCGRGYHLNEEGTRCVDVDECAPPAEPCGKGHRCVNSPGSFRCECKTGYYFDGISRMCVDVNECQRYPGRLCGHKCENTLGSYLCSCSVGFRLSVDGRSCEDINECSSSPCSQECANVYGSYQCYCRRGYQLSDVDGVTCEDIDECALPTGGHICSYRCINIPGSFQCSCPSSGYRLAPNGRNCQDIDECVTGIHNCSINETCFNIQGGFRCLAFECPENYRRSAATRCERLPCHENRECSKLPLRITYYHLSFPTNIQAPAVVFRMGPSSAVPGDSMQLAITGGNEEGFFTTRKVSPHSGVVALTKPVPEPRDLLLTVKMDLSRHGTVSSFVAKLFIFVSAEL
The experiment is described as follows: SPR; reticulocalbin immobilised; buffer with EDTA (10 mM Hepes, 150 mM NaCl, 20 mM EDTA and 0.005% Tween 20 pH 7.4).

Experiment [2] deals with T2, recombinant GST-grp75 (AAH00478.1) (human, UniProt P38646 47-679).
T2 construct: also called glucose regulated protein 75; mortalin; source: bought: Abnova (Taipei, Taiwan)
Description: SPR; Biacore 2000/3000, CM5 chip, calumenin, GST-calumenin, reticulocalbin or GST amine-coupled; 25°C; 10 mM HEPES, 150 mM NaCl, 5 mM CaCl2, 1 mM EGTA, 0.005% Tween 20, pH 7.4; 1:1 Langmuir model; apparent KD from koff/kon. A general note: Surface plasmon resonance follows binding to a sensor surface in real time, without labels.

Experiment [3] concerns the target T3, C1 esterase inhibitor (commercial, Calbiochem) (UniProt P05155 23-500).
T3 construct: source: bought: Calbiochem
T3 sequence (looked up): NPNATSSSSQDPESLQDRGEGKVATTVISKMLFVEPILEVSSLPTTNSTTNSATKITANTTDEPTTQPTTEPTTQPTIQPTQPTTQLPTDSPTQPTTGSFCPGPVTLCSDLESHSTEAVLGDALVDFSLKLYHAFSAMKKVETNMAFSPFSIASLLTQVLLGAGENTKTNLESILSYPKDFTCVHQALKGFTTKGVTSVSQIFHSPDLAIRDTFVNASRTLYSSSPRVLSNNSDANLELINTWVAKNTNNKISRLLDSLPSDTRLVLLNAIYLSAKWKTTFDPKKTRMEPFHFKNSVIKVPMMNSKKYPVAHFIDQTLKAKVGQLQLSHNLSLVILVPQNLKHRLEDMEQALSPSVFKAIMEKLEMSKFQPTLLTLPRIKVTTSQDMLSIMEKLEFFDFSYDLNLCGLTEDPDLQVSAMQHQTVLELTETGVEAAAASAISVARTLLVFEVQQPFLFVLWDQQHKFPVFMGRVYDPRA
The description is as above.

For experiment [4], the target named is T1, GST-fibulin-1C. The experiment is described as above.

T2 sequence (P38646 47-679): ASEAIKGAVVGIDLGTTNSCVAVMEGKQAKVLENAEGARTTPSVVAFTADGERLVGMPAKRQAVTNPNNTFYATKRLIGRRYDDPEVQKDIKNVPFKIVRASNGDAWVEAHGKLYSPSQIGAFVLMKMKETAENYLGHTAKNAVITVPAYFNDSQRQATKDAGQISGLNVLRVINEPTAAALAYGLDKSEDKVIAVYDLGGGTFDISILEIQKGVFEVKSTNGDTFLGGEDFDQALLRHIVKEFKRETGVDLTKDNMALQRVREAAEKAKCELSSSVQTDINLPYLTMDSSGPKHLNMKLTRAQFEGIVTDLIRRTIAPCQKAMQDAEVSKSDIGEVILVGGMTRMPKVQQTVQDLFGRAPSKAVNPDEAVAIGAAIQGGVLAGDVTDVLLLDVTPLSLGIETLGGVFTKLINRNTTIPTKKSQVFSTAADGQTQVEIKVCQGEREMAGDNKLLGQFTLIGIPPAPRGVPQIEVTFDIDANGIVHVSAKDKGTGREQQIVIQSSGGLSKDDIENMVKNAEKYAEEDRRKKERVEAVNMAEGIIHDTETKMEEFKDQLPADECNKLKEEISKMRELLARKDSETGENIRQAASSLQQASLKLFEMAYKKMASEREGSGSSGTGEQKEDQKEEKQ

B1: recombinant reticulocalbin (natural protein)
chain: KPTVRKERVVRPDSELGERPPEDNQSFQYDHEAFLGKEDSKTFDQLSPDESKERLGKIVDRIDSDGDGLVTTEELKLWIKRVQKRYIYDNVAKVWKDYDRDKDEKISWEEYKQATYGYYLGNPAEFHDSSDHHTFKKMLPRDERRFKASDLDGDLTATREEFTAFLHPEEFEHMKEIVVLETLEDIDKNGDGFVDQDEYIADMFSHEDNGPEPDWVLSEREQFNDFRDLNKDGKLDKDEIRHWILPQDYDHAQAEARHLVYESDKNKDEMLTKEEILDNWNMFVGSQATNYGEDLTKNHDEL
modifications: Expressed in E. coli as a GST fusion; GST removed with thrombin. Species and limits are not printed: mouse is inferred because the plasmid came from Dr. Ozawa, whose original reticulocalbin clone was
Regarding B1, the Kd with GST-fibulin-1C [1] is approximately 50 nM; in experiment [2] it was approximately 3 nM; in experiment [3], approximately 1000 nM; with GST-fibulin-1C [4] it was approximately 60 nM.

B2: GST-calumenin (natural protein, UniProt O43852 20-315, looked up)
chain: KPTEKKDRVHHEPQLSDKVHNDAQSFDYDHDAFLGAEEAKTFDQLTPEESKERLGKIVSKIDGDKDGFVTVDELKDWIKFAQKRWIYEDVERQWKGHDLNEDGLVSWEEYKNATYGYVLDDPDPDDGFNYKQMMVRDERRFKMADKDGDLIATKEEFTAFLHPEEYDYMKDIVVQETMEDIDKNADGFIDLEEYIGDMYSHDGNTDEPEWVKTEREQFVEFRDKNRDGKMDKEETKDWILPSDYDHAEAEARHLVYESDQNKDGKLTKEEIVDKYDLFVGSQATDFGEALVRHDEF
notes: source: E. coli, purified (glutathione-sepharose, Superdex 200)
Consider B2, for which the Kd was approximately 150 nM in experiment [3] and approximately 50 nM with GST-fibulin-1C [4].

B3: recombinant calumenin (immobilised; construct not told) (natural protein, UniProt O43852 20-315, looked up)
chain: KPTEKKDRVHHEPQLSDKVHNDAQSFDYDHDAFLGAEEAKTFDQLTPEESKERLGKIVSKIDGDKDGFVTVDELKDWIKFAQKRWIYEDVERQWKGHDLNEDGLVSWEEYKNATYGYVLDDPDPDDGFNYKQMMVRDERRFKMADKDGDLIATKEEFTAFLHPEEYDYMKDIVVQETMEDIDKNADGFIDLEEYIGDMYSHDGNTDEPEWVKTEREQFVEFRDKNRDGKMDKEETKDWILPSDYDHAEAEARHLVYESDQNKDGKLTKEEIVDKYDLFVGSQATDFGEALVRHDEF
notes: calumenin; also called immobilised calumenin; source: E. coli, purified
With B3, the Kd in experiment [2] was approximately 7 nM.
